The values that follow come from article PMC5778702.

This experiment has as its target pCMV-HA-H (HA-H), hemagglutinin (H) protein of Peste des petits ruminants virus with HA tag (Peste des petits ruminants virus). The experiment can be described thus: SPR; […]; Biacore 3000, 25 °C, HBS-EP (10 mM HEPES pH 7.4, 150 mM NaCl, 3 mM EDTA, 0.005% P20); […]. (Surface plasmon resonance follows binding to a sensor surface in real time, without labels.)
In general, Kd refers to the constant that tells how readily two partners part at equilibrium. By koff is commonly meant a measure of how fast the partners let go of each other. Low values mean a long-lived complex, high ones a short-lived complex. The kon is a measure of how fast the partners come together. Take “pCMV-HA-F (HA-F), fusion (F) protein of Peste des petits ruminants virus with HA tag (natural protein)”: the Kd came to 19.1 nM, the koff was found to be 0.000937 s⁻¹ and the on-rate (kon) is 49100 M⁻¹ s⁻¹.

On to “pCMV-HA-HRA (HA-HRA), heptad repeat region A of the PPRV F protein with HA tag (domain or fragment)”, for which the Kd came out at 108000 nM, the off-rate (koff) turned out to be 0.00414 s⁻¹ and the kon was found to be 38.2 M⁻¹ s⁻¹.

“pCMV-HA-HRB (HA-HRB), heptad repeat region B of the PPRV F protein with HA tag (domain or fragment)” registered a Kd of 260 nM, a dissociation rate constant (koff) of 0.00299 s⁻¹ and a kon of 11500 M⁻¹ s⁻¹.
